The target of this assay is T1, CheA3P1, the isolated P1 (Hpt, histidine-containing phosphotransfer) domain of CheA3 (residues 1-135), … (R. sphaeroides).
T1 construct: Analyte in SPR and partner in the unphosphorylated crystal structure; also called Hpt domain of CheA3
As to the kind of experiment: SPR; Biacore T100, 25°C; response regulator biotinylated in a C-terminal tag and held on streptavidin (200-1,500 RU); CheA3P1 injected at 120 nM to 2 mM; standard buffer (30 mM Hepes pH 7.5, 150 mM NaCl, 5 mM sodium acetate, 2 mM manganese chloride, 2 mM TCEP) with 0.05% Tween 20; equilibrium binding, 1:1 Langmuir model. The note with it: both partners purified.

Drawing on article PMC2817712, “Using Structural Information to Change the Phosphotransfer Specificity of a Two-Component Chemotaxis Signalling Complex” (PLoS Biology, 2010), this text covers Kd for 2 molecules.

Residue numbers refer to the chain shown, from its start. Names and notes keep the numbering of the source.

B1: CheY6(M13S) with an engineered C-terminal biotinylation tag, for SPR surfaces (natural protein)
chain: PYNVMIVDDAASMRLYIASFIKTLPDFKVVAQAANGQEALDKLAAQPNVDLILLDIEMPVMDGMEFLRHAKLKTRAKICMLSSVAVSGSPHAARARELGADGVVAKPSGTVSHDLEEKTGGELARTMRTLMAA
modifications: biotin within the engineered C-terminal tag (enzymatic)
By Kd is commonly meant a measure of binding affinity in units of concentration. High values mean lower affinity, low ones higher affinity. In turn, B1 showed a Kd greater than 1 mM.

B2: CheY6(M13S,L16S,Y17M) with an engineered C-terminal biotinylation tag, for SPR surfaces (natural protein)
chain: B1 chain with L15S, Y16M
modifications: biotin within the engineered C-terminal tag (enzymatic)
On to B2, for which the dissociation constant (Kd) was greater than 1 mM.
